Measured values reported in paper PMC3369926, “TRAM Is Involved in IL-18 Signaling and Functions as a Sorting Adaptor for MyD88” (PLoS ONE, 2012).

T1: GST-IL-18Rβ-TIR (amino acid residues 407-599) (UniProt O95256 407-599)
T1 construct: IL-18Rβ (formerly IL-1AcPL), cytosolic TIR domain, residues 407-599; also called IL-18Rβ TIR domain; IL-1AcPL TIR; source: purified as GST fusion protein (pGEX vector), by methods previously described
T1 sequence (looked up): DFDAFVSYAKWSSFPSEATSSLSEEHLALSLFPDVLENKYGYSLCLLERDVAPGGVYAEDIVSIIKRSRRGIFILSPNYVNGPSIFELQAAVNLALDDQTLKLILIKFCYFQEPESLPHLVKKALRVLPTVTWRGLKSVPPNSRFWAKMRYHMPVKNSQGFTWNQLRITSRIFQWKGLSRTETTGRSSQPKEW

B1: TRAM-TIR (amino acid residues 66-235) (domain or fragment, human, UniProt Q86XR7 66-235, looked up)
chain: EEMFEEEAEEEVFLKFVILHAEDDTDEALRVQNLLQDDFGIKPGIIFAEMPCGRQHLQNLDDAVNGSAWTILLLTENFLRDTWCNFQFYTSLMNSVNRQHKYNSVIPMRPLNNPLPRERTPFALQTINALEEESRGFPTQVERIFQESVYKTQQTIWKETRNMVQRQFIA
notes: TRAM (TICAM-2), human, TIR domain, residues 66-235; also called TIR domain of human TRAM; TRAM TIR domain; source: purified; subcloned into a pGEX vector, obtained by a similar procedure as previously described for the MyD88-TIR

These binders were tested against B1 (assay: pull-down; GST fusion proteins held on Glutathione Sepharose 4B, three hours at 4°C; four washes with 20 mM potassium phosphate (pH 6.0), 100 mM KCl, 0.1 mM EDTA, 10 mM DTT, 0.5% Triton X100; SDS-PAGE with Coomassie staining; in triplicate). Conditions: both partners purified.

binding result	Binder
binds	GST-IL-18Rα-TIR (amino acid residues 374-541) (domain or fragment, UniProt Q13478 374-541, looked up, IL-18Rα (formerly IL-1Rrp), cytosolic TIR domain, residues 374-541; also called IL-18Rα TIR domain; IL-1Rrp TIR; source: purified as GST fusion protein (pGEX vector), by methods previously described) TYDAFVSYLKECRPENGEEHTFAVEILPRVLEKHFGYKLCIFERDVVPGGAVVDEIHSLIEKSRRLIIVLSKSYMSNEVRYELESGLHEALVERKIKIILIEFTPVTDFTFLPQSLKLLKSHRVLKWKADKSLSYNSRFWKNLLYLMPAKTVKPGRDEPEVLPVLSES
binds	GST-MyD88-TIR (wild type, amino acid residues 148-296) (domain or fragment, UniProt Q99836 148-296, looked up, MyD88, TIR domain, amino acid residues 148-296; also called wild-type MyD88-TIR; MyD88 TIR domain; source: purified as GST fusion protein (pGEX vector), by methods previously described) TTLDDPLGHMPERFDAFICYCPSDIQFVQEMIRQLEQTNYRLKLCVSDRDVLPGTCVWSIASELIEKRCRRMVVVVSDDYLQSKECDFQTKFALSLSPGAHQKRLIPIKYKAMKKEFPSILRFITVCDYTNPCTKSWFWTRLAKALSLP
binds	GST-MyD88-TIR R217A (148-296) (domain or fragment, UniProt Q99836 148-296, looked up, MyD88, TIR domain, residues 148-296, with R217A; also called Site I mutant R217A; source: purified as GST fusion protein (pGEX vector), by methods previously described) TTLDDPLGHMPERFDAFICYCPSDIQFVQEMIRQLEQTNYRLKLCVSDRDVLPGTCVWSIASELIEKRCARMVVVVSDDYLQSKECDFQTKFALSLSPGAHQKRLIPIKYKAMKKEFPSILRFITVCDYTNPCTKSWFWTRLAKALSLP
binds	GST-MyD88-TIR R196A (148-296) (domain or fragment, UniProt Q99836 148-296, looked up, MyD88, TIR domain, residues 148-296, with R196A; also called Site II mutant R196A; source: purified as GST fusion protein (pGEX vector), by methods previously described) TTLDDPLGHMPERFDAFICYCPSDIQFVQEMIRQLEQTNYRLKLCVSDADVLPGTCVWSIASELIEKRCRRMVVVVSDDYLQSKECDFQTKFALSLSPGAHQKRLIPIKYKAMKKEFPSILRFITVCDYTNPCTKSWFWTRLAKALSLP
binds	GST-MyD88-TIR R288A (148-296) (domain or fragment, UniProt Q99836 148-296, looked up, MyD88, TIR domain, residues 148-296, with R288A; also called Site III mutant R288A; source: purified as GST fusion protein (pGEX vector), by methods previously described) TTLDDPLGHMPERFDAFICYCPSDIQFVQEMIRQLEQTNYRLKLCVSDRDVLPGTCVWSIASELIEKRCRRMVVVVSDDYLQSKECDFQTKFALSLSPGAHQKRLIPIKYKAMKKEFPSILRFITVCDYTNPCTKSWFWTALAKALSLP

What follows are binders tested against T1, GST-IL-18Rβ-TIR (amino acid residues …) in the same assay as above. Conditions: both partners purified.

binding result	Binder
binds	B1
